In patent US20160347802A1 (MAX PLANCK GESELLSCHAFT ZUR FOERDERUNG DER WISSENSCHAFTEN E …, published 2016):

T1: human DRAXIN 21 amino acid Netrin binding fragment, AVEXIS prey or bait protein (human)
T1 construct: Tested in both bait and prey orientations; also called human 21 amino acid DRAXIN fragment; derived 21 amino acid peptide; not shown: AVEXIS tag (rat Cd4d3+4 and prey or bait module)
T1 peptide: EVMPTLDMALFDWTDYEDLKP

T2: human DRAXIN, AVEXIS prey or bait protein (human, UniProt Q8NBI3 26-349)
T2 sequence: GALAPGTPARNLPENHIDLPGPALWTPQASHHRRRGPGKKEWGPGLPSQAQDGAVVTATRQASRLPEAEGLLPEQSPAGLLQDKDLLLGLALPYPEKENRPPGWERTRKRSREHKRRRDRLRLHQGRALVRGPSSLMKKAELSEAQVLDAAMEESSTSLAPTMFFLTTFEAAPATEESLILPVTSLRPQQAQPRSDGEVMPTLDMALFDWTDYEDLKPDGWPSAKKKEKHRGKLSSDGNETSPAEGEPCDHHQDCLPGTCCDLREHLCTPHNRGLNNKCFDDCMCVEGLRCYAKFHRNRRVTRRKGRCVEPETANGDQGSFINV

B1: human Netrin-4, AVEXIS protein (ligand, UniProt Q9HB63 19-628, looked up)
chain: GLSGVAGVSSRCEKACNPRMGNLALGRKLWADTTCGQNATELYCFYSENTDLTCRQPKCDKCNAAYPHLAHLPSAMADSSFRFPRTWWQSAEDVHREKIQLDLEAEFYFTHLIVMFKSPRPAAMVLDRSQDFGKTWKPYKYFATNCSATFGLEDDVVKKGAICTSKYSSPFPCTGGEVIFKALSPPYDTENPYSAKVQEQLKITNLRVQLLKRQSCPCQRNDLNEEPQHFTHYAIYDFIVKGSCFCNGHADQCIPVHGFRPVKAPGTFHMVHGKCMCKHNTAGSHCQHCAPLYNDRPWEAADGKTGAPNECRTCKCNGHADTCHFDVNVWEASGNRSGGVCDDCQHNTEGQYCQRCKPGFYRDLRRPFSAPDACKPCSCHPVGSAVLPANSVTFCDPSNGDCPCKPGVAGRRCDRCMVGYWGFGDYGCRPCDCAGSCDPITGDCISSHTDIDWYHEVPDFRPVHNKSEPAWEWEDAQGFSALLHSGKCECKEQTLGNAKAFCGMKYSYVLKIKILSAHDKGTHVEVNVKIKKVLKSTKLKIFRGKRTLYPESWTDRGCTCPILNPGLEYLVAGHEDIRTGKLIVNMKSFVQHWKPSLGRKVMDILKRECK
notes: not shown: AVEXIS tag (bait or prey)
B2: human Netrin-G1, AVEXIS protein (ligand, UniProt Q9Y2I2 29-510, looked up)
chain: HYDLCKTQIYTEEGKVWDYMACQPESTDMTKYLKVKLDPPDITCGDPPETFCAMGNPYMCNNECDASTPELAHPPELMFDFEGRHPSTFWQSATWKEYPKPLQVNITLSWSKTIELTDNIVITFESGRPDQMILEKSLDYGRTWQPYQYYATDCLDAFHMDPKSVKDLSQHTVLEIICTEEYSTGYTTNSKIIHFEIKDRFAFFAGPRLRNMASLYGQLDTTKKLRDFFTVTDLRIRLLRPAVGEIFVDELHLARYFYAISDIKVRGRCKCNLHATVCVYDNSKLTCECEHNTTGPDCGKCKKNYQGRPWSPGSYLPIPKGTANTCIPSISSIGNCECFGHSNRCSYIDLLNTVICVSCKHNTRGQHCELCRLGYFRNASAQLDDENVCIECYCNPLGSIHDRCNGSGFCECKTGTTGPKCDECLPGNSWHYGCQPNVCDNELLHCQNGGTCHNNVRCLCPAAYTGILCEKLRCEEAGSCGS
notes: as for B1
B3: human Netrin-G2, AVEXIS protein (ligand, UniProt Q96CW9 18-507, looked up)
chain: DYDICKSWVTTDEGPTWEFYACQPKVMRLKDYVKVKVEPSGITCGDPPERFCSHENPYLCSNECDASNPDLAHPPRLMFDKEEEGLATYWQSITWSRYPSPLEANITLSWNKTVELTDDVVMTFEYGRPTVMVLEKSLDNGRTWQPYQFYAEDCMEAFGMSARRARDMSSSSAHRVLCTEEYSRWAGSKKEKHVRFEVRDRFAIFAGPDLRNMDNLYTRLESAKGLKEFFTLTDLRMRLLRPALGGTYVQRENLYKYFYAISNIEVIGRCKCNLHANLCSMREGSLQCECEHNTTGPDCGKCKKNFRTRSWRAGSYLPLPHGSPNACATAGSFGNCECYGHSNRCSYIDFLNVVTCVSCKHNTRGQHCQHCRLGYYRNGSAELDDENVCIECNCNQIGSVHDRCNETGFCECREGAAGPKCDDCLPTHYWRQGCYPNVCDDDQLLCQNGGTCLQNQRCACPRGYTGVRCEQPRCDPADDDGGLDCDRAPG
notes: as for B1

Assays:
[1] = target: T3, human Netrin1, recombinant AVEXIS protein (biotinylated when immobilised) (human, UniProt O95631 25-604); assay: AVEXIS, prey on bait NTN1; white = No binding
T3 construct: also called NTN1
Description: (§1) The Matn4-bait served as an internal prey-protein control and was used for normalization of the A486 nm values; conditioned medium (CM) serves as negative control; n=3.

[2] = target: T1, human DRAXIN 21 amino acid Netrin …; assay: AVEXIS, prey on bait DRAXIN 21aa; white = No binding
Description: as §1

[3] = target: B2; assay: AVEXIS, prey on bait NTNG1; white = No binding
Description: as §1

[4] = target: T3, human Netrin1, recombinant AVEXIS …; assay: AVEXIS, prey NTN1 on bait NTN4
Description: as §1

[5] = target: the molecule itself; assay: AVEXIS, prey on bait NTN4; white = No binding
Description: as §1

[6] = target: the molecule itself; assay: AVEXIS, prey NTN4 on bait NTN4
Description: as §1

[7] = target: T4, biotinylated recombinant human UNC5B (human, UniProt Q8IZJ1 27-377); assay: AVEXIS, prey on bait UNC5B; white = No binding
T4 construct: Made in HEK293-6E and immobilised on an SA chip
Description: as §1

[8] = target: T2, human DRAXIN, AVEXIS prey or bait …; assay: AVEXIS, prey on bait DRAXIN; white = No binding
Description: as §1

[9] = target: T5, Matn4 ECD, mono-biotinylated bait protein (positive control); assay: AVEXIS, prey on bait Matn4 (+), positive control for the prey; dark = Binding
T5 construct: extracellular domain; also called Matn4-bait
Description: as §1

[10] = target: T6, human Netrin-3, AVEXIS protein (human, UniProt O00634 28-580); assay: AVEXIS, prey on bait NTN3; white = No binding
T6 construct: not shown: AVEXIS tag (bait or prey)
Description: as §1

[11] = target: B3; assay: AVEXIS, prey on bait NTNG2; white = No binding
Description: as §1

[12] = target: the molecule itself; assay: AVEXIS, prey on bait NTNG1; white = No binding
Description: as §1

[13] = target: B1; assay: AVEXIS, prey on bait NTN4; white = No binding
Description: as §1

[14] = target: T3, human Netrin1, recombinant AVEXIS …; assay: AVEXIS, prey NTN1 on bait NTNG1
Description: as §1

[15] = target: the molecule itself; assay: AVEXIS, prey NTNG1 on bait NTNG1
Description: as §1

[16] = target: B3; assay: AVEXIS, prey NTNG1 on bait NTNG2
Description: as §1

[17] = target: T6, human Netrin-3, AVEXIS protein; assay: AVEXIS, prey NTN3 on bait NTNG1
Description: as §1

[18] = target: B1; assay: AVEXIS, prey NTN4 on bait NTNG1
Description: as §1

[19] = target: the molecule itself; assay: AVEXIS, prey NTNG2 on bait NTNG2
Description: as §1

[20] = target: T3, human Netrin1, recombinant AVEXIS …; assay: AVEXIS, prey NTN1 on bait NTNG2
Description: as §1

[21] = target: B1; assay: AVEXIS, prey NTN4 on bait NTNG2
Description: as §1

[22] = target: the molecule itself; assay: AVEXIS, prey on bait NTNG2; white = No binding
Description: as §1

[23] = target: T6, human Netrin-3, AVEXIS protein; assay: AVEXIS, prey NTN3 on bait NTNG2
Description: as §1

T6 sequence (O00634 28-580): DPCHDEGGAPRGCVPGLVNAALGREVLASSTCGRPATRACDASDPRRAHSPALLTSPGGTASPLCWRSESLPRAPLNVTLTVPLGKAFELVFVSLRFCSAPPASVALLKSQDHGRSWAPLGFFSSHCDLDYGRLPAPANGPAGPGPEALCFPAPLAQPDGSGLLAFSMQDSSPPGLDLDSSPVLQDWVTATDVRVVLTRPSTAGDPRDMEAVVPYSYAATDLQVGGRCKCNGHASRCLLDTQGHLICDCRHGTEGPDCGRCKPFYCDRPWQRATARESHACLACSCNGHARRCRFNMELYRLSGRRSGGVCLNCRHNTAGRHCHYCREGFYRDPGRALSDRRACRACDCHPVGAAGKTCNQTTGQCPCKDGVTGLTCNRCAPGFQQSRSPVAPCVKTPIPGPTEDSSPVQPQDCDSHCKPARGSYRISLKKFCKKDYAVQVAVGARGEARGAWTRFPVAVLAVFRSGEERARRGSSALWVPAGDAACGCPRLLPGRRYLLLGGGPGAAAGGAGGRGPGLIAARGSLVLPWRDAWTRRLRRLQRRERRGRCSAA

Row | A486nm [1] | A486nm [2] | A486nm [3] | A486nm [7] | A486nm [8] | A486nm [9] | A486nm [10] | A486nm [11] | A486nm [13] | Binder | further results
1 | 0.067 | 0.067 | 0.065 | 0.063 | 0.063 | 0.235 | 0.065 | 0.063 | – | B1 | binding result [4]: no binding; A486nm [5]: 0.068; binding result [6]: no binding
2 | 0.062 | 0.063 | – | 0.061 | 0.061 | 0.254 | 0.064 | 0.061 | 0.066 | B2 | A486nm [12]: 0.062; binding result [14]: no binding; binding result [15]: no binding; binding result [16]: no binding; binding result [17]: no binding; binding result [18]: no binding
3 | 0.06 | 0.063 | 0.061 | 0.061 | 0.06 | 0.201 | 0.062 | – | 0.063 | B3 | binding result [19]: no binding; binding result [20]: no binding; binding result [21]: no binding; A486nm [22]: 0.062; binding result [23]: no binding
